Positions count from the first letter of the chain named.
B1: ADI-41486 (antibody, V domains shown)
VH: QVQLQQWGAGLLKPSETLSLTCSVYGGSFSGYYWSWIRQPPGKGLEWIGEINHSGSTNYNPSLKSRITISVDTSKNQFSLKLNSVTAADTAVYYCARGDYAFVTFDYWGQGTLVTVSS
VL: QSVLTQPASVSGSPGQSITISCTGTSSDVGGYNYVSWYQQHPGKAPKLMIYEVSNRPSGVSNRFSGSKSGNTASLTISGLQAEDEADYYCSSYTSSSTPVFGGGTKLTVL
notes: also called Ab 767; Antibody Number 767
B2: ADI-41494 (antibody, V domains shown)
VH: EVQLVESGGGLVQPGRSLRLSCTTSGFTFGDYAVTWVRQAPGKGLEWIGIMKSKTYRGTTDYAASLRGRFSISRDDSKSIAYLQMTSLKSEDTGVYYCVRGHDYGDPFDYWGQGTLVTVSS
VL: B1 VL with T25G, G31Y, M49L, E52D, S54N, N62D, A82P, S95R, S97R, P99W
notes: also called Ab 774; Antibody Number 774
B3: ADI-41485 (antibody, V domains shown)
VH: EVQLLESGPGLVRPSETLSLTCTVSGGSLDSGPHYWNWIRQPPGKGLEWIGYIYYSVSTNYNPSLKSRVTISMDTSKNQFSLNLTSVTAADTAVYYCASFQLIYGPQIWGQGKKVTVSS
VL: DIVLTQSPSSVSASVGDRVTITCRASQAISSWLIWSQHKPGKAPKVLIYAASSLQSGVPSRFSGSGSGTDFTLTISSLQPEDFATYYCQQANNFPLTFGGGTKVEIK
B4: ADI-41472 (antibody, V domains shown)
VH: QVQLVQSGAEVKKPGSSVKVSCKASGGTFSSYAISWVRQAPGQGLEWMGRIIPVLDITNYAQKFQGRVTIMADKSTSTAYMELSSLRSEDTAIYYCARETSNFYFYYNAMDVWGQGTTVTVSS
VL: QPVLTQPPSASGSPGQSVTISCTGTSSDVGGDNYVSWYQQHPGKAPKLLIYEVSKRPSGVPDRFSGSRSGHTASLTVSGLQAEDEADYYCSSYAGRNNLGVFGGGTKLTVL
B5: ADI-41487 (antibody, V domains shown)
VH: QVQLVESGGGLVKPGGSLRLSCAASGFTFSTYTMNWVRQAPGKGLEWVSSISGSSAYIYYADSVKGRFTISRDNAKNSLFLQMNSLRAEDTAVYYCARLQGLVLPAVMPSYYYYSGMDVWGQGTTVTVSS
VL: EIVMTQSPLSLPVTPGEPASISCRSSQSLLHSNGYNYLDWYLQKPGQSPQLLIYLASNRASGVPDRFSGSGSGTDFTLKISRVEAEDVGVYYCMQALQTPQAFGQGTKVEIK
notes: also called Ab 768; Antibody Number 768
B6: ADI-41498 (antibody, V domains shown)
VH: EVQLLESGGGLVKPGGSLRLSCAASGFIFSDYAMNWVRQTPGKGLEWVSSISDSSAYKYYTGSVSGRFTISRDNAKNSLYLQMNDLRPEDTAVFYCARGQWRCSGASCYSPFDSWGQGTLVTVSS
VL: SYELTQPPSVSVAPGQTARIPCGGNNIESKNVHWYQQKPGQAPVLVVYDDSDRPSGIPERFSGSNSGSTATLTISRVEAGDEADYYCHVWHRSGDLREVFGSGTKVTVL
notes: also called Ab 778; Antibody Number 778
B7: ADI-41484 (antibody, V domains shown)
VH: EVQLVESGPGLVKPSEALSLTCTVSGASISSYYWTWIRQSPRKGLEWIGYIYHTGRTNYNPSLKRRVTMSVDWSKNQFSLTLSSVTAADTAVYYCARLKVVPAALESAILEHHFGLDVWGQGTTVTVSS
VL: DIVMTQTPSTLSASIGDRVTLTCRASQSINRWLAWYQQKPGKAPKLLIYKASTLESGVPSRFSGSGSGTEFTLTISGLQPDDFATYYCQQYNNFPYTFGPGTKVDIK
B8: ADI-41474 (antibody, V domains shown)
VH: QVQLVQSGAEVKRPGASVKVSCKISGYTFTSHYIHWLRQAPGQGLEWMGWINPNTGDTKYEQKFQGRVTMTRDTSLSTAYMELRRLRSDDTAVYYCARDSFYAANGYYFVWFDPWGQGALVTVSS
VL: DIQMTQSPTSLSASVGDRVTITCRASQSISSYLNWYQQKPGKAPRFLIYAASSLQSGVPSRFRGSGSGTDFTLTISSLQPEDFATYYCQQSYSSPYTFGQGTKVEIK
notes: also called Ab 757; Antibody Number 757
B9: ADI-41492 (antibody, V domains shown)
VH: QVQLVQSGAEVRKPGSSVKVSCKASGGTFNSFVISWVRQAPGQGLEWMGRIIPILATVDYAQKFQGRVTITADKSTTTAYMELSGLTSEDTAVYYCARDPPRWDTTMADYYYQGMDVWGQGTTVTVSS
VL: DIRVTQSPASLSAFVGDRVTISCRASQSIGSFLNWYQQKPGKAPKLLIYAASSLQSGVPSRFSGSGSGTDFTLAISSLQPEDFATYYCQQSYRSTPTFGGGTKVEIK
B10: ADI-41493 (antibody, V domains shown)
VH: QVQLVQSGAEVKKPGESLKISCKGSGYSFTKYWIGWVRQLPGKGLEWMGIIYPGDSETIYSPSFQGQVTISADKSVSTAYLQWSSLKASDTAMYYCARQTFVFWGESHDAFDIWGQGTTVTVSS
VL: QPVLTQPPSASGSPGQSVTISCTGTSSDVGAHNYVSWYQQHPGKAPKLMIYEVSKRPSGVPDRFSGSKSGNTASLTVSGLQAEDEADYYCSSYAGSNNWVFGGGTKLTVL
notes: also called Ab 773; Antibody Number 773
B11: ADI-41473 (antibody, V domains shown)
VH: QVQLVQSGPGLVKPSQTLSLTCAISGDSVSSNSAAWSWIRQSPSRGLEWLGRTYYRSKWYYDHAVSVEGRITINADTSKNHFSLQLNSVTPEDTAVYYCARDPDSGNYFHYYGMDVWGQGTTVTVSS
VL: ETTLTQSPATLSLSPGERATLSCRTSQSVSSYLAWYQQKPGQAPRLLIYDASRRATGIPARFSGSGSGTHFTLTITSLEPEDFAVYYCQQRSKWPPYSFGQGTKVDIK
B12: ADI-41475 (antibody, V domains shown)
VH: B11 VH with V5Q, Q6E, S37N, Y60W, Y61T, H63Y, E68K, G69S, A75P, H81Q
VL: B11 VL with T25A, V29A, R53K, H70D, T72S, T76S, Q90L, S98T, D106E
B13: ADI-41496 (antibody, V domains shown)
VH: QVQLVQSGAEVKKPGASVKVSCKASGYTFTSDDINWVRQATGQGLEWMGWMNPNSGDTGYAQKFQGRVTMTRDTSISTAYMELSSLRSEDTAVYYCARVRIQCSGGRCSYWFFDLWGRGTLVTVSS
VL: QSALTQPASVSGSPGQSITISCIGTSSDVGNYNLVSWYQHHPGKAPKVMIYEVNERPSGVSNRFSGSKSGNTASLTISGLQAEDEADYYCCSYAGRSTWVFGGGTKLTVL
B14: ADI-41495 (antibody, V domains shown)
VH: QVQLVQSGGGLVEPGGSLRLSCAASGFTFSNTWMNWVRQAPGKGLTWVGRIKRKTDFGTSDYAAPVKGRFTISRDDSKNMVFLQMNSLKIEDTGVYYCTTHPRPYLDTTAVVYWGQGTLVTVSS
VL: QPVLTQPHSVSESPGKTVTISCIGSSGSITSNYVQWFQQRPGSAPTTVIYEDDQRPSGVPDRFSGSIDSSSNSASLTISGLKTEDEADYYCQSYHHTNPWVFGGGTKLTVL
B15: ADI-41481 (antibody, V domains shown)
VH: QVQLVESGPGLVKPSETLSLACSVSGVSISTYYWTWIRQPPGKGLEWIGYISYSGSTNYNPSLKSRVTISADTSKNQFSLRLNSVTAADTAVYYCARTYYDFWSTYYGEFDHWGHGTLVTVSS
VL: SYELTQPLSVSVALGQTARITCGGNNIESKNVHWYQQKPGQAPVVVMYRDTNRPSGIPERFSGSNSGNTATLTISRAQAGDEADYYCQVWDSGTAGVVFGGGTKVTVL
notes: also called Ab 763; Antibody Number 763
B16: ADI-41471 (antibody, V domains shown)
VH: QVQLVQSGADVKKPGSSVKISCKASGGSFITNSLSWVRRAPGQGLEWMGGIIPVSGTTTYAQKFLGRVTFTADESTSTAYMELNSLRSEDTAVYYCARFLGTPYPNVHYGMDVWGQGTTVTVSS
VL: DIRVTQSPSSLSASVGARVTITCRASQSISTYLNWYQEKPGKAPKLLIYAASSLQRGVPSRFSGSGSETTFTLTISSLQPEDFATYYCQQSYTAAYNFGQGTKVEIK
B17: ADI-41480 (antibody, V domains shown)
VH: EVQLLESGPGLVRPSGTLSLTCTVSGDSISGSNWWAWVRQPPGRRLEWIGEIYYRGATDYNSSLKSRVIISVDNSKNQFSLNLRSVTAADTAIYYCARVEKFATSGYYISYFDYWGQGTLVTVSS
VL: DIRVTQSPSSLSASVGDRVTITCRASQSISTYLNWYQHNPGKAPKLLIYAASSLQSGVPSRFSGSGSGTHFTLTISSLQPADFSTYYCQQSYSSPWTFGQGTKVEIK
B18: ADI-41497 (antibody, V domains shown)
VH: QVQLVESGGGVVQPGRSLRLSCAASGFTFSNHAMHWVRQAPGKGLEWLSFISYDGGVNFYRDSVKGRFTISRDNSKNTLYLQMSSLRPEDTAVYYCARDRVGRVVGASYYLDYWGRGALVTVSS
VL: QSVVTQPPSVSVAPGQTASITCGGKHIGSKSVHWYQQKPGQSPVLVVHDDSDRPSGILERFSGSNSGNTATLTINRVEAGDEADYYCQVWDNASDHPYVFGPGTKVTVL
B19: ADI-41482 (antibody, V domains shown)
VH: QVQLVQSGAEVKKPGSSVKVSCKASGGTFGSYTINWVRQAPGQGLEWMGGIIPIFGATNYAQNFQGRVSITADKSTATAYMDLISLRSEDTAVYYCARLGRSSPLNSCTTTSCYFWGRGMDVWGQGTTVTVSS
VL: QSVLIQPASVSGSPGQSITISCTGTISDVGIYNYVSWYQQHPGKAPKLIISDVSDRPSGVSNRFSGSKSGITASLTITGLQAEDEADYYCSSYSSSSTLYVFGTGTKLTVL

Target: RSV F on RSV-A2 virus (Respiratory Syncytial Virus (RSV-A2), UniProt P03420 26-574)
Assay: cell-based or functional assay

Binder | Neutralization IC50 (RSV subtype A)
B1 | > 25 µg/mL
B2 | > 25 µg/mL
B3 | > 25 µg/mL
B4 | 0.27 µg/mL
B5 | > 25 µg/mL
B6 | > 25 µg/mL
B7 | > 25 µg/mL
B8 | 0.26 µg/mL
B9 | > 25 µg/mL
B10 | > 25 µg/mL
B11 | > 25 µg/mL
B12 | > 25 µg/mL
B13 | > 25 µg/mL
B14 | > 25 µg/mL
B15 | 0.68 µg/mL
B16 | > 25 µg/mL
B17 | > 25 µg/mL
B18 | > 25 µg/mL
B19 | > 25 µg/mL

Target: RSV prefusion F (preF), DS-Cav1 (Respiratory Syncytial Virus, UniProt P03420 26-513)
Assay: BLI, IgG on anti-human IgG sensor, 100 nM antigen, 1:1 fit

Binder | Kd
B1 | 2.86 nM
B2 | 2.61 nM
B3 | 3.01 nM
B4 | 3.05 nM
B5 | 3.12 nM
B6 | 1.22 nM
B7 | 3.44 nM
B8 | 17.8 nM
B9 | 182 nM
B10 | 0.45 nM
B11 | 12.7 nM
B12 | 12.2 nM
B13 | 1.65 nM
B14 | 77.2 nM
B15 | 2.09 nM
B16 | 3.75 nM
B17 | 4.34 nM
B18 | 1.44 nM
B19 | 3.37 nM

Target: RSV postfusion F (postF), F ΔFP (Respiratory Syncytial Virus, UniProt P03420 26-513)
Assay: as above

Binder | Kd
B1 | 0.448 nM
B2 | 0.44 nM
B3 | 1.02 nM
B4 | 1.06 nM
B5 | 0.754 nM
B6 | 0.22 nM
B7 | 0.782 nM
B8 | 34.8 nM
B9 | 54.8 nM
B10 | 0.372 nM
B11 | 31.2 nM
B12 | 25.5 nM
B13 | 1.37 nM
B14 | 57.3 nM
B15 | 0.443 nM
B16 | 0.761 nM
B17 | 0.703 nM
B18 | 0.268 nM
B19 | 1.49 nM

From patent US20260258115A1 (MAPP BIOPHARMACEUTICAL, published 2026)
